Reference: patent US20140349340A1, “MBTH-LIKE PROTEINS IN THE PRODUCTION OF SEMI SYNTHETIC ANTIBIOTICS” (DSM SINOCHEM PHARMACEUTICALS NETHERLANDS B.V., priority 2012, published 2014)

Key:
Assay type in all cases: biochemical
[1] = PPi release assay, adenylation activity with D-phenylalanine; conditions: substrate D-phenylalanine
Excerpt: (§1) These assays use inorganic pyrophosphatases to convert PPi produced during aminoacyl-AMP formation to orthophosphate (Pi). To measure Pi concentrations some of these assays use molybdate/malachite green reagent for colorimetric detection (McQuade et al. 2008) or, as used in the context of the present invention, a shift in absorbance maximum by conversion of 7-methyl-6-thioguanosine (MESG) by purine nucleoside phosphorylase (Ehmann D. E. et al. (Proc. Natl. Acad. Sci. (2000) 97, 2509-2514) or Daniel & Aldrich (Anal. Biochem. (2010) 404, 56-63)).
(§2) To determine the adenylation activity of the adenylation domains, the Enzchek® pyrophosphate assay kit (Life Technologies) was used as described by Ehmann D. E. et al. (Proc Nat Acad Science (2000) 97, 2509-2514) with small modifications. The reactions were performed 96 wells UV/Vis transparent plates (BD Falcon). The reaction mixture comprises 50 mM HEPES pH 8.0, 10 mM MgCl2, 5 mM ATP, 75 mM DTT, 0.03 U Inorganic Pyrophosphatase (IP), 1 U Purine Nucleoside Phosphorylase (PNP) and 0.2 mM MESG in a volume of 70 μl. Next 20 μl (around 0.5-2 μM final concentration) of purified A(T) domain, with or without co-purification of the MbtH like helper protein was added and the reaction was pre-incubated for 15 minutes at RT to reduce contaminating Pi. Following the pre-incubation, 10 μl of a 10 mM or 1 mM solution of the appropriate amino acid depending on the performed specificity determination was added to initiate the adenylation reaction and the absorbance at 360 nm was measured using a TECAN I Control spectrophotometer. Absorbance measurements were made every 5 to 10 min over a period of up to 240 min. A reaction with addition of 10 μl MilliQ water instead was used to determine and subtract the background absorbance. As substrates the following amino acids were used: D- or L-phenylalanine, D- or L-hydroxyphenylglycine, D- or L-phenylglycine, L-tryptophan, L-valine, L-cysteine, and L-leucine.

[2] = PPi release assay, adenylation activity with L-phenylalanine; conditions: substrate L-phenylalanine
Excerpt: as §1, §2

[3] = PPi release assay, adenylation activity with L-hydroxyphenylglycine; conditions: substrate L-hydroxyphenylglycine
Excerpt: as §1, §2

[4] = PPi release assay, adenylation activity with D-hydroxyphenylglycine; conditions: substrate D-hydroxyphenylglycine
Excerpt: as §1, §2

[5] = PPi release assay, adenylation activity with L-valine; conditions: substrate L-valine; protein alone; data not shown
Excerpt: as §1
(§3) To determine the adenylation activity of the adenylation domains, the Enzchek® pyrophosphate assay kit (Life Technologies) was used as described by Ehmann D. E. et al. (Proc Nat Acad Science (2000) 97, 2509-2514) with small modifications. The reactions were performed 96 wells UV/Vis transparent plates (BD Falcon). […] Following the pre-incubation, 10 μl of a 10 mM or 1 mM solution of the appropriate amino acid depending on the performed specificity determination was added to initiate the adenylation reaction and the absorbance at 360 nm was measured using a TECAN I Control spectrophotometer. Absorbance measurements were made every 5 to 10 min over a period of up to 240 min. A reaction with addition of 10 μl MilliQ water instead was used to determine and subtract the background absorbance. […]

[6] = PPi release assay, adenylation activity with L-cysteine; conditions: substrate L-cysteine; protein alone; data not shown
Excerpt: as §1, §3

[7] = PPi release assay, adenylation activity with L-leucine; conditions: substrate L-leucine; protein alone; data not shown
Excerpt: as §1, §3

[8] = PPi release assay, adenylation activity with L-tryptophan; conditions: substrate L-tryptophan; protein alone; data not shown
Excerpt: as §1, §3

[9] = co-purified with MbtH-like protein Tcp13
[10] = protein alone, without MbtH-like protein

B1: StaC_M2_A: purified adenylation domain of StaC module M2 (SEQ ID NO: 8); Streptomyces toyocaensis (protein, listed as Streptomyces toyocaensis)
chain: LPVGRLGVTSDATRTSEVERWNATGEAAGGASVVELFRRRSAGTPDAVAVVDGDRTLSYGDLDRESDRLAGRLAETGVRRGDHVGVVLERGADLFVAFLAVWKAGAAYVPVHVDYPPVRIERMLADAGVTVAVCAEGTRNAVPDGLEPVPVDAPWAGETRHETPTVTARDAAYVMYTSGSTGEPKGIVVPHGSVAALAGDPGWALDADDCVLMHASHAFDASLFEIWAPLVRGARVMVAEPGAVDTQRLREAVARGVTTVHLTAGSFRVLAEESPGSFDGLREILTGGDVVPLASVAQLRRACPDVRVRHLYGPTETTLCGTWHLLEPGDEPGDVLPIGRPLAGRRAYVLDAFLQPVAPNVTGELYLAGVGLALGYLGARGATSERFVADPFVPGERMYRTGDLARRNDRGELLFAGRADAQVKIRGYRVEPTEIETVLAEAPQVAQTVVVAREDGPGEKRLIAYAIAEPDQVLDPEALREHLAARLPEFMVPAAVVVLDDFPLTINGKIDREALPAPEFSAKPAGREPRTEAERVLC
[1]; [9]
  adenylation activity (absorption 360 nm, PPi release assay): no activity
[1]; [10]
  adenylation activity (absorption 360 nm, PPi release assay): No adenylation activity
[2]; [9]
  adenylation activity (absorption 360 nm, PPi release assay): no activity
[2]; [10]
  adenylation activity (absorption 360 nm, PPi release assay): No adenylation activity
[3]; [9]
  adenylation activity (absorption 360 nm, PPi release assay): clear adenylation activity
[3]; [10]
  adenylation activity (absorption 360 nm, PPi release assay): No adenylation activity
[4]; [9]
  adenylation activity (absorption 360 nm, PPi release assay): clear adenylation activity
[4]; [10]
  adenylation activity (absorption 360 nm, PPi release assay): No adenylation activity

B2: BpsB_M2_A: purified adenylation domain of BpsB module M2 (SEQ ID NO: 5); Amycolatopsis balhimycina (protein, listed as Amycolatopsis balhimycina)
chain: VGRLGVTSEPTRAAVVERWNSTGEAAAETSVLELFRRQAGASPDAVAVVAGERTLSYADLDRESDRLAGHLAGIGVGRGDRVGVVMTRGADLFVALLGVWKAGAAQVPVNVDYPAERIERMLADVGASVAVCVEATRKAVPDGVEPVVVDLPVIGGVRPEAPPVTVGAHDVAYVMYTSGSTGVPKAVAVPHGSVAALASDPGWSQGPGDCVLLHASHAFDASLVEIWVPLVSGARVLVAEPGTVDAERLREAVSRGVTTVHLTAGAFRAVAEESPDSFIGLREILTGGDAVPLASVVRMRQACPDVRVRQLYGPTEITLCATWLVLEPGAATGDVLPIGRPLAGRQAYVLDAFLQPVAPNVTGELYLAGAGLAHGYLGNTAATSERFVANPFSGGGRMYRTGDLARWTDQGELVFAGRADSQVKIRGYRVEPGEVEVALTEVPHVAQAVVVAREGQPGEKRLIAYVTAEAGSALESAAVRAHLATRLPEFMVPSVVVVLESFPLTLNGKIDRAALPAPEFAGKAAGREPRTEAERVLCG
[1]; [9]
  adenylation activity (absorption 360 nm, PPi release assay): no activity
[1]; [10]
  adenylation activity (absorption 360 nm, PPi release assay): No adenylation activity
[2]; [9]
  adenylation activity (absorption 360 nm, PPi release assay): no activity
[2]; [10]
  adenylation activity (absorption 360 nm, PPi release assay): No adenylation activity
[3]; [9]
  adenylation activity (absorption 360 nm, PPi release assay): clear adenylation activity
[3]; [10]
  adenylation activity (absorption 360 nm, PPi release assay): No adenylation activity
[4]; [9]
  adenylation activity (absorption 360 nm, PPi release assay): clear adenylation activity
[4]; [10]
  adenylation activity (absorption 360 nm, PPi release assay): No adenylation activity

B3: CepB_M2_A: purified adenylation domain of CepB (PCZA363.4) module M2 (SEQ ID NO: 4); Amycolatopsis orientalis (protein, listed as Amycolatopsis orientalis)
chain: LPVGRLGVTSEPARASVVERWNSTGEAANRTSVLELFRQQADASPDAVAVMDAARTLSYADLDRESDRLAGYLAAMGVRRGDRVGVVMERGTDLFVALLAVWKAGAAQVPVNVDYPAERIERMLADAGASVAVCLEATRKAVPDGVEPVVMDVPAIDGVRHEAPQVTVGAHDLAYVMYTSGSTGVPKGVAVPHGSVAALASDPGWSQGPDDCVLLHASHAFDASLVEIWVPLVNGSRVMVAEPGAVDAERLREAISRGVTTVHLTAGAFRAVAEESPDSFTGLREILTGGDAVPLASVVRMRRACPDVRVRQLYGPTEITLCATWHVIEPGAETGDTLPIGRPLAGRQAYVLDAFLQPVAPNVTGELYIAGAGLAHGYLGNNGSTSERFIANPFASGERMYRTGDLARWTDQGELLFAGRADSQVKIRGYRVEPGEIEVALTEVPHVAQAVVVAREDHPGDKRLIAYVTAEEGPALAADAVREHLAARMPEFMVPAVVLVLDSFPLTLNGKIDRAALPAPEFTGKAAGREPRTETERVLC
[1]; [9]
  adenylation activity (absorption 360 nm, PPi release assay): no activity
[1]; [10]
  adenylation activity (absorption 360 nm, PPi release assay): No adenylation activity
[2]; [9]
  adenylation activity (absorption 360 nm, PPi release assay): no activity
[2]; [10]
  adenylation activity (absorption 360 nm, PPi release assay): No adenylation activity
[3]; [9]
  adenylation activity (absorption 360 nm, PPi release assay): clear adenylation activity
[3]; [10]
  adenylation activity (absorption 360 nm, PPi release assay): No adenylation activity
[4]; [9]
  adenylation activity (absorption 360 nm, PPi release assay): clear adenylation activity
[4]; [10]
  adenylation activity (absorption 360 nm, PPi release assay): No adenylation activity

B4: TycA: control protein; first one-module-bearing peptide synthetase for synthesis of tyrocidine by Bacillus brevis, phenylalanine-specific adenylation domain (protein, UniProt P09095 1-1088, looked up)
Tyrocidine synthase 1: MLANQANLIDNKRELEQHALVPYAQGKSIHQLFEEQAEAFPDRVAIVFENRRLSYQELNRKANQLARALLEKGVQTDSIVGVMMEKSIENVIAILAVLKAGGAYVPIDIEYPRDRIQYILQDSQTKIVLTQKSVSQLVHDVGYSGEVVVLDEEQLDARETANLHQPSKPTDLAYVIYTSGTTGKPKGTMLEHKGIANLQSFFQNSFGVTEQDRIGLFASMSFDASVWEMFMALLSGASLYILSKQTIHDFAAFEHYLSENELTIITLPPTYLTHLTPERITSLRIMITAGSASSAPLVNKWKDKLRYINAYGPTETSICATIWEAPSNQLSVQSVPIGKPIQNTHIYIVNEDLQLLPTGSEGELCIGGVGLARGYWNRPDLTAEKFVDNPFVPGEKMYRTGDLAKWLTDGTIEFLGRIDHQVKIRGHRIELGEIESVLLAHEHITEAVVIAREDQHAGQYLCAYYISQQEATPAQLRDYAAQKLPAYMLPSYFVKLDKMPLTPNDKIDRKALPEPDLTANQSQAAYHPPRTETESILVSIWQNVLGIEKIGIRDNFYSLGGDSIQAIQVVARLHSYQLKLETKDLLNYPTIEQVALFVKSTTRKSDQGIIAGNVPLTPIQKWFFGKNFTNTGHWNQSSVLYRPEGFDPKVIQSVMDKIIEHHDALRMVYQHENGNVVQHNRGLGGQLYDFFSYNLTAQPDVQQAIEAETQRLHSSMNLQEGPLVKVALFQTLHGDHLFLAIHHLVVDGISWRILFEDLATGYAQALAGQAISLPEKTDSFQSWSQWLQEYANEADLLSEIPYWESLESQAKNVSLPKDYEVTDCKQKSVRNMRIRLHPEETEQLLKHANQAYQTEINDLLLAALGLAFAEWSKLAQIVIHLEGHGREDIIEQANVARTVGWFTSQYPVLLDLKQTAPLSDYIKLTKENMRKIPRKGIGYDILKHVTLPENRGSLSFRVQPEVTFNYLGQFDADMRTELFTRSPYSGGNTLGADGKNNLSPESEVYTALNITGLIEGGELVLTFSYSSEQYREESIQQLSQSYQKHLLAIIAHCTEKKEVERTPSDFSVKGLQMEEMDDIFELLANTLR
[5]
  adenylation activity (PPi release assay): similarly recognized and adenylated
[1]; [10]
  adenylation activity (absorption 360 nm, PPi release assay): accepted as substrate
[6]
  adenylation activity (PPi release assay): no adenylation activity
[7]
  adenylation activity (PPi release assay): similarly recognized and adenylated
[2]; [10]
  adenylation activity (absorption 360 nm, PPi release assay): accepted as substrate
[8]
  adenylation activity (PPi release assay): similarly recognized and adenylated
[3]; [10]
  adenylation activity (absorption 360 nm, PPi release assay): no adenylation activity
[4]; [10]
  adenylation activity (absorption 360 nm, PPi release assay): no adenylation activity
